The values below come from paper PMC5435084.

This assay deals with Robo1-CC3 (UniProt Q9Y6N7). The assay is described as follows: SPR.
Robo1-CC3, sequence (Q9Y6N7 26-1651): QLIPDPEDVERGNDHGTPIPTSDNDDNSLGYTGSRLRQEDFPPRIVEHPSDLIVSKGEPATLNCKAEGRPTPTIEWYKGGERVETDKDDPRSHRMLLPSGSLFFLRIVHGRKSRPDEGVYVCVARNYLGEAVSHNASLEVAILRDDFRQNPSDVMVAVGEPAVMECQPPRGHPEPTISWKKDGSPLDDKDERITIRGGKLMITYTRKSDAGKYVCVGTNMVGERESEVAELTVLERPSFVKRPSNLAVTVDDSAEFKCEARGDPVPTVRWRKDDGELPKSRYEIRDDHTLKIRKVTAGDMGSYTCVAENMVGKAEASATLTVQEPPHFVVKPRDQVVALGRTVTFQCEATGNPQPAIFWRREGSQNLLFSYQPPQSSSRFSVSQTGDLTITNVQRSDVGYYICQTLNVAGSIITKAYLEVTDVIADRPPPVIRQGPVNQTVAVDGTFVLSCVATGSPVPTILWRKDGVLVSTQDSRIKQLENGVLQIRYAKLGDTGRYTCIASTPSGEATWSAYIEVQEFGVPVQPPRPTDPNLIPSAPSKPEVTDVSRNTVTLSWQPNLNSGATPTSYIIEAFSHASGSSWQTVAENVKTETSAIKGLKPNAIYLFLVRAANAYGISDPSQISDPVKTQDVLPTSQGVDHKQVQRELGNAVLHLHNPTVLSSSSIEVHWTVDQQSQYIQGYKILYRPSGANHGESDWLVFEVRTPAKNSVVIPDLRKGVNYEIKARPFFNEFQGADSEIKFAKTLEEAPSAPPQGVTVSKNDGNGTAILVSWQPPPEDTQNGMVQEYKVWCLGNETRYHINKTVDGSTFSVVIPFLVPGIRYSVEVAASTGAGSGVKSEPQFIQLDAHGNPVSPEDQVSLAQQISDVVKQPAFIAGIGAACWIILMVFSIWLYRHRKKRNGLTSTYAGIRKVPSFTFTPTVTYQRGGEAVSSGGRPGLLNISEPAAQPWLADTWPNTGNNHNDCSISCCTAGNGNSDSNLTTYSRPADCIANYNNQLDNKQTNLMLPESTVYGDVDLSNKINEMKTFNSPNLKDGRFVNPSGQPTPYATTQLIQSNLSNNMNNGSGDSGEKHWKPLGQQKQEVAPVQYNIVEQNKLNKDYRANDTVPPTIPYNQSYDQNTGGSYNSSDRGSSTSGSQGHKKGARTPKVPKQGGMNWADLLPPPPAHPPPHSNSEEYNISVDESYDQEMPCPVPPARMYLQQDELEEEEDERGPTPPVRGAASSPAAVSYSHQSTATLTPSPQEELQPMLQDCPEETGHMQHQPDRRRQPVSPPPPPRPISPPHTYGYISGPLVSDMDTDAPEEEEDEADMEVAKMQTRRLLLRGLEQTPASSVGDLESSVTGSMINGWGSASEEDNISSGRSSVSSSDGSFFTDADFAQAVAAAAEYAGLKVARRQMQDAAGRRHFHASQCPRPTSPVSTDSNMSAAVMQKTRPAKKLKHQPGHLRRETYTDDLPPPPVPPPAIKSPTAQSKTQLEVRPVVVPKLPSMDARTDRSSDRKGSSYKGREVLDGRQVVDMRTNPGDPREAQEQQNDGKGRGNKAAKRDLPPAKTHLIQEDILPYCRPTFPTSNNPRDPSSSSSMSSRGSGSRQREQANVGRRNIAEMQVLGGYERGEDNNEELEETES

Regarding “SRGAP2A:F-BARC hetero-dimer (from UniProt O75044 1-799; P0DJJ0 1-355) (complex)”, the Kd worked out at 5.6 µM.
